Measured values from article PMC7824956, “Structural and Biochemical Characterization of a Cold-Active PMGL3 Esterase with Unusual Oligomeric Structure” (Biomolecules, 2021).
Where “and” joins values, the source holds several entries; their conditions need not be identical. Equal entries are not always repeated.

What was measured:
[1] = target: T1, PMGL3 (unidentified, UniProt Z9N994FV33); experiment: esterase activity, Michaelis-Menten nonlinear regression; assay type: biochemical, permafrost metagenome; details: 50 mM Tris-HCl pH 8.0, 100 mM NaCl, 30 °C; 0.2-2 mM substrate
T1 construct: recombinant in E. coli, pET32a (stated for mutants), C-terminal hexahistidine tag; 302 residues modelled plus last 10 C-terminal residues invisible; mainly dimer in solution, tetramer in crystal; catalytic motif 147GESAG151, E243, H273
T1 sequence (Z9N994FV33 1-304): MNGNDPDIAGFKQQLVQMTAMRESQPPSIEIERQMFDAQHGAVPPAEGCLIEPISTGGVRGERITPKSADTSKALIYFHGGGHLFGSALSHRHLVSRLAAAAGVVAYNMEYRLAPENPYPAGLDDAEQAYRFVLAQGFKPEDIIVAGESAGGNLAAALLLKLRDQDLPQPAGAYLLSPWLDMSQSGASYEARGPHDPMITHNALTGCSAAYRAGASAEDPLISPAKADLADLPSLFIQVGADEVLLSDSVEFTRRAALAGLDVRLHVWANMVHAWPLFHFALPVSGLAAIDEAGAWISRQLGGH
Description: (§1) esterase activity, Michaelis-Menten nonlinear regression on PMGL3

[2] = tested on: T2, CCCC(=O)Oc1ccc([N+](=O)[O-])cc1; experiment: as above; assay type: biochemical, permafrost metagenome; details: 50 mM Tris-HCl pH 8.0, 100 mM NaCl, 30 °C, 0.2-2 mM substrate
T2 construct: recombinant in E. coli, pET32a (stated for mutants), C-terminal hexahistidine tag; 302 residues modelled plus last 10 C-terminal residues invisible; mainly dimer in solution, tetramer in crystal; catalytic motif 147GESAG151, E243, H273
Description: as §1

[3] = target: PMGL3 E47Q mutant (not stated (Siberian permafrost metagenomic DNA library)); experiment: SEC; samples after incubation for 30 min and/or 1 h at 40 °C; Superdex 200 10/300 GL, 0.4 mL/min, 100 mM Tris-HCl pH 8.0, 150 mM NaCl
[4] = target: PMGL3 E47Q mutant (not stated (Siberian permafrost metagenomic DNA library)); experiment: SEC; freshly isolated samples; Superdex 200 10/300 GL, 0.4 mL/min, 100 mM Tris-HCl pH 8.0, 150 mM NaCl; column calibrated with protein standards
[5] = target: PMGL3 K67A mutant (not stated (Siberian permafrost metagenomic DNA library)); experiment: SEC; samples after incubation for 30 min and/or 1 h at 40 °C; Superdex 200 10/300 GL, 0.4 mL/min, 100 mM Tris-HCl pH 8.0, 150 mM NaCl
[6] = target: PMGL3 K67A mutant (not stated (Siberian permafrost metagenomic DNA library)); experiment: SEC; freshly isolated samples; Superdex 200 10/300 GL, 0.4 mL/min, 100 mM Tris-HCl pH 8.0, 150 mM NaCl; column calibrated with protein standards
[7] = target: cold-active esterase PMGL3, wild type (not stated (Siberian permafrost metagenomic DNA library)); experiment: crystal structure; X-ray, space group C2, two subunits in the asymmetric unit; crystals from 0.1 M sodium citrate pH 5.6, 20% isopropanol, 20% PEG 4000; oligomers from crystal contact analysis (PDBePISA)
[8] = target: cold-active esterase PMGL3, wild type (not stated (Siberian permafrost metagenomic DNA library)); experiment: SEC; samples after incubation for 30 min and/or 1 h at 40 °C; Superdex 200 10/300 GL, 0.4 mL/min, 100 mM Tris-HCl pH 8.0, 150 mM NaCl
[9] = target: cold-active esterase PMGL3, wild type (not stated (Siberian permafrost metagenomic DNA library)); experiment: SEC; freshly isolated samples; Superdex 200 10/300 GL, 0.4 mL/min, 100 mM Tris-HCl pH 8.0, 150 mM NaCl; column calibrated with protein standards
[10] = target: cold-active esterase PMGL3, wild type (not stated (Siberian permafrost metagenomic DNA library)); experiment: crystal structure; X-ray, space group C2, two subunits in the asymmetric unit; crystals from 0.1 M sodium citrate pH 5.6, 20% isopropanol, 20% PEG 4000; oligomers from crystal contact analysis (PDBePISA); remark: listed apart in the source
[11] = target: cold-active esterase PMGL3, wild type (not stated (Siberian permafrost metagenomic DNA library)); experiment: SEC; freshly isolated samples; Superdex 200 10/300 GL, 0.4 mL/min, 100 mM Tris-HCl pH 8.0, 150 mM NaCl; column calibrated with protein standards; remark: listed apart in the source
[12] = target: cold-active esterase PMGL3, wild type (not stated (Siberian permafrost metagenomic DNA library)); experiment: SEC; sample after storage for 3 months at 4 °C; Superdex 200 10/300 GL, 0.4 mL/min, 100 mM Tris-HCl pH 8.0, 150 mM NaCl
[13] = target: PMGL3 D7N mutant (not stated (Siberian permafrost metagenomic DNA library)); experiment: SEC; samples after incubation for 30 min and/or 1 h at 40 °C; Superdex 200 10/300 GL, 0.4 mL/min, 100 mM Tris-HCl pH 8.0, 150 mM NaCl
[14] = target: PMGL3 D7N mutant (not stated (Siberian permafrost metagenomic DNA library)); experiment: SEC; freshly isolated samples; Superdex 200 10/300 GL, 0.4 mL/min, 100 mM Tris-HCl pH 8.0, 150 mM NaCl; column calibrated with protein standards

With CCCC(=O)Oc1ccc([N+](=O)[O-])cc1 [p-nitrophenyl butyrate] as the compound, how does the Km [1] read?
The Km was 980 ± 90 µM.

With PMGL3 (unidentified; E47Q) as the compound, how does the Km [2] read?
The Km was 1070 ± 90 µM.

What about the Vmax [2] of the same compound?
The Vmax was 117 µmol/min/mg.

And the kcat [2]?
Its kcat is 63.7 ± 2.07 s⁻¹.

PMGL3 E47Q mutant (enzyme) was tested. Which stoichiometry N [3] did it give?
Its stoichiometry N is 4.

What about the stoichiometry N [4] of the same compound?
The stoichiometry N was 4 and 2.

How did the Km [2] turn out when PMGL3 (unidentified; D7N) was run?
Its Km is 840 ± 70 µM.

And the Vmax [2]?
Its Vmax is 157 µmol/min/mg.

What about the kcat [2] of the same compound?
The kcat was 85 ± 3.15 s⁻¹.

Which results are given for PMGL3 K67A mutant (enzyme)?
stoichiometry N [5]: 4; stoichiometry N [6]: 2

Which results are given for “cold-active esterase PMGL3, wild type (enzyme)”?
stoichiometry N [7]: 2; stoichiometry N [8]: 4; stoichiometry N [9]: 2; stoichiometry N [10]: 4; stoichiometry N [11]: 4; stoichiometry N [12]: 4

Which results are given for PMGL3 D7N mutant (enzyme)?
stoichiometry N [13]: 4; stoichiometry N [14]: 2 and 4

PMGL3 (unidentified; K67A) was tested. Which Km [2] did it give?
Its Km is 940 ± 60 µM.

What about the Vmax [2] of the same compound?
Its Vmax is 102 µmol/min/mg.

What about the kcat [2] of the same compound?
The kcat was 55.5 ± 1.4 s⁻¹.
